Laboratory results taken from US20260274936A1.

Each substance was assayed against human neonatal Fc-receptor (FcRn) (human) (UniProt P55899) (assay: FcRn affinity chromatography).
human neonatal Fc-receptor (FcRn) (human), sequence (P55899 24-297 limits assumed, chain 1 of 2): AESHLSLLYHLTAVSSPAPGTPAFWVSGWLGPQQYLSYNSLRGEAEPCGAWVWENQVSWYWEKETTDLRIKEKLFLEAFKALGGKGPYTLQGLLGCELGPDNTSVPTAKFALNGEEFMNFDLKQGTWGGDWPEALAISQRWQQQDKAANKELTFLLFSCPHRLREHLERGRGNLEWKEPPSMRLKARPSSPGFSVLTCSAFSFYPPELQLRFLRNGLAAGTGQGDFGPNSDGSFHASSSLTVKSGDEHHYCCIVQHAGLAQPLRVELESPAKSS
human neonatal Fc-receptor (FcRn) (human), sequence (P61769 21-119 limits assumed, chain 2 of 2, further chain): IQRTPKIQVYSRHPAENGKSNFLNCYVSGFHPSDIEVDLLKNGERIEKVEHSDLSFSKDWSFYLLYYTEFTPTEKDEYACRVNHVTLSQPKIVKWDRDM
“molecule with IgG1 Fc-region L234A/L235A/P329G and Y436A (symmetric) (antibody)” gave a FcRn-affinity column retention time of 41.3 min.

The substances below were run against human neonatal Fc-receptor (FcRn) (human) (UniProt P55899) (assay: FcRn affinity chromatography, anti-HER2 antibody).
Substance “anti-HER2 antibody, K290H (symmetrically modified)” has a retention time of 46.2 min.
Work on “anti-HER2 antibody, R255D (symmetrically modified)” yielded a retention time of 41.4 min.
For “anti-HER2 antibody, L309H (symmetrically modified)”, the retention time was 45.5 min.
In the case of “anti-HER2 antibody, N434H (symmetrically modified)”, the retention time was 52 min.
“anti-HER2 antibody, D98E (symmetrically modified)” was tested, and the retention time was 46.2 min.
For “anti-HER2 antibody, K288E (symmetrically modified)”, the retention time was 45.2 min.
“anti-HER2 antibody, E258H (symmetrically modified)” was tested, and the retention time was 45.6 min.

The substances below were run against human neonatal Fc-receptor (FcRn) (human) (UniProt P55899) (assay: FcRn affinity chromatography, anti-VEGF/ANG-2 KiH antibody).
For “bispecific anti-VEGF/ANG-2 antibody (knobs-into-holes), FcRn affecting mutation: none (bispecific antibody)”, the retention time on FcRn affinity column was 51.8 min.
Work on “bispecific anti-VEGF/ANG-2 antibody (knobs-into-holes), one chain with H310A (bispecific antibody)” yielded a retention time on FcRn affinity column of 48.4 min.
“bispecific anti-VEGF/ANG-2 antibody (knobs-into-holes), one chain with I253A (bispecific antibody)” was tested, and the retention time on FcRn affinity column was 48.8 min.
Substance “bispecific anti-VEGF/ANG-2 antibody (knobs-into-holes), one chain with L251D/L314D/L432D (bispecific antibody)” has a retention time on FcRn affinity column of 46.3 min.
Work on “bispecific anti-VEGF/ANG-2 antibody (knobs-into-holes), one chain with H435A (bispecific antibody)” yielded a retention time on FcRn affinity column of 48.8 min.
With “bispecific anti-VEGF/ANG-2 antibody (knobs-into-holes), one chain with H310A/H433A/Y436A (bispecific antibody)” the retention time on FcRn affinity column was 46.7 min.
With “bispecific anti-VEGF/ANG-2 antibody (knobs-into-holes), one chain with M252Y/S254T/T256E (bispecific antibody)” the retention time on FcRn affinity column was 56.2 min.

Each substance was assayed against human neonatal Fc-receptor (FcRn) (human) (UniProt P55899) (assay: FcRn affinity chromatography; the table in the text prints 51.8 min for 'none').
Work on “bispecific anti-VEGF/ANG-2 antibody (knobs-into-holes), FcRn affecting mutation: none (bispecific antibody)” yielded an RT of 52.8 min.
